Measurements taken from US5906819.

Key:
[1] = target: T1, myosin light chain (chicken) (UniProt P02612)
T1 sequence: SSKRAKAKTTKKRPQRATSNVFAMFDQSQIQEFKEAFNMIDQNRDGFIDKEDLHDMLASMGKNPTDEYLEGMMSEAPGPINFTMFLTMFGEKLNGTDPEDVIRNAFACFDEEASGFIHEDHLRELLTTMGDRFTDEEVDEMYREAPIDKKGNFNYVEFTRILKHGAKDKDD

B1: GST-Rho-kinase (enzyme)
chain: PTGKMPGAPEAVSGDGAGASRQRKLEALIRDPRSPINVESLLDGLNPLVLDLDFPALRKNKNIDNFLNRYEKIVKKIRGLQMKAEDYDVVKVIGRGAFGEVQLVRHKASQKVYAMKLLSKFEMIKRSDSAFFWEERDIMAFANSPWVVQLFCAFQDDKYLYMVMEYMPGGDLVNLMSNYDVPEKWAKFYTAEVVLALDAIHSMGLIHRDVKPDNMLLDKHGHLKLADFGTCMKMDETGMVHCDTAVGTPDYISPEVLKSQGGDGYYGRECDWWSVGVFLFEMLVGDTPFYADSLVGTYSKIMDHKNSLCFPEDAEISKHAKNLICAFLTDREVRLGRNGVEEIKQHPFFKNDQWNWDNIRETAAPVVPELSSDIDSSNFDDIEDDKGDVETFPIPKAFVGNQLPFIGFTYYRENLLLSDSPSCKENDSIQSRKNEESQEIQKKLYTLEEHLSTEIQAKEELEQKCKSVNTRLEKVAKELEEEITLRKNVESTLRQLEREKALLQHKNAEYQRKADHEADKKRNLENDVNSLKDQLEDLKKRNQNSQIS
B1 gave a phosphorylation of intact myosin (mol phosphorylation per 1 mol myosin) (intact myosin (chicken)) of 1, a specific activity with S6 peptide as a substrate (mol per minute per 1 mol GST-Rho-kinase) (S6 peptide) of 41 and an apparent Km for myosin light chain [1] of 0.91 µM.
